Experimental data published in patent publication US20110144187, “APTAMER INHIBITION OF THROMBUS FORMATION” (published 2011).

Key:
[1] = tested on: fibrinogen (Homo sapiens), P02671-2+P02675+P02679-2; experiment: filter; conditions: quinoline-8-boronic acid-modified T (B-TTP) replacing T outside the primer region; average Kd of DNA pool after round 13
[2] = molecular target: T1, deglycosylated fibrinogen (TFMS-treated) (Homo sapiens, UniProt P02671-2;P02675;P02679-2 P02671-2:20-629,P02675:31-491,P02679-2:27-437); experiment: filter; equilibrium filtration; conditions: tags: Sigma-Aldrich fibrinogen, chemically deglycosylated with trifluoromethanesulfonic acid, chain copies: 2
T1 sequence (P02671 20-629, chain 1 of 3): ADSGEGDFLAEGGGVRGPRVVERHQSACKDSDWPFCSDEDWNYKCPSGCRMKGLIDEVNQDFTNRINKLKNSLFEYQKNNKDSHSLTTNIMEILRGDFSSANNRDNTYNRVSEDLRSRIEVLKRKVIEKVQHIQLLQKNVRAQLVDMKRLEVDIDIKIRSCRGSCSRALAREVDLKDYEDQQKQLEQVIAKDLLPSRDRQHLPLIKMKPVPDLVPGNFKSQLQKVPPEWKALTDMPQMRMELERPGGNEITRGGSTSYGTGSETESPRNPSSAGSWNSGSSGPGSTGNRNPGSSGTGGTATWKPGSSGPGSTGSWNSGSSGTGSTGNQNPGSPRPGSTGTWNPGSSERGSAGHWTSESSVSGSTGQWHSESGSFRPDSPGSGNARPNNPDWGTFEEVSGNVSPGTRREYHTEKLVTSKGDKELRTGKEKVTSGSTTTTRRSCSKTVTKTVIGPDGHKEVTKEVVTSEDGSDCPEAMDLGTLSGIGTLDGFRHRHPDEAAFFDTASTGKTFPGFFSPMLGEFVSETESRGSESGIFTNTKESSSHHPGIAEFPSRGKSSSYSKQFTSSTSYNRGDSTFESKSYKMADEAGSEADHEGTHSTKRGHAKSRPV
T1 sequence (P02675 31-491, chain 2 of 3): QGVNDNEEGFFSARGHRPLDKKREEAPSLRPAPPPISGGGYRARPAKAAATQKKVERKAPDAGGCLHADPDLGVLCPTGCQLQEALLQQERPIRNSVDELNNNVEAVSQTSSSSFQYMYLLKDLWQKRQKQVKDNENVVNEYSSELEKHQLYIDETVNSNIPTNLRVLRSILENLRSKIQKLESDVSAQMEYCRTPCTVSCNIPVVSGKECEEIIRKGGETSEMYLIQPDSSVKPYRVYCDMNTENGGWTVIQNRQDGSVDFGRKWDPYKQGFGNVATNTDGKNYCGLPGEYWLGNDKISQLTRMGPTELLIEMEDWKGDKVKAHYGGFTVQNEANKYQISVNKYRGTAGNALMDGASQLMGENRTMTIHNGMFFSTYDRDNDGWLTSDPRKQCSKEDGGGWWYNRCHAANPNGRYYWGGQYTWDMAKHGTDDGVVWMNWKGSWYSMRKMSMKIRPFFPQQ
T1 sequence (P02679 other isoform, or with tags, fused parts or gaps, chain 3 of 3): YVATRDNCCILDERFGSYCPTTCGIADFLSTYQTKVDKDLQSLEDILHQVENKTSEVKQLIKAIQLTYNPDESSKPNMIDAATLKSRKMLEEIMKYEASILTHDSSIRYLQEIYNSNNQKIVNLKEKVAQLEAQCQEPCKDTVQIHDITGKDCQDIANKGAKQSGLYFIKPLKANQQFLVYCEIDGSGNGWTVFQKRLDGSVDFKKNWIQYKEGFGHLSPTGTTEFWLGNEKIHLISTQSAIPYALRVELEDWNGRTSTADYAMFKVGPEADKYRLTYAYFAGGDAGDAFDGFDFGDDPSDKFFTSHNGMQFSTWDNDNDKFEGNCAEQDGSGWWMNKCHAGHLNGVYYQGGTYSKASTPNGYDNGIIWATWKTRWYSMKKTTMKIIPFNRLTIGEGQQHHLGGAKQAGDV
Description: (§1) Dissociation constants in solution were determined by equilibrium filtration (Jenison et al., Science 1994, 263, 1425-1429; Huang & Szostak, RNA 2003, 9: 1456-1463;). Using this technique, the bound and unbound ligand (DNA) partition between the two portions were separated by a membrane. DNA was first amplified into dsDNA using two primers by PCR (25 cycles of 0.5 min at 94° C., 0.5 min at 46° C., and 0.5 min at 72° C., followed by 5 min at 72° C.). The dsDNA product was then split into ssDNA using one primer and α-³²P-dATP by one-round PCR. The ³²P-labeled ssDNA ligand (10 nM) and the protein (1-1000 nM) in the 100 μL of binding buffer were incubated for 15 min at 25° C. prior to loading into the Microcon YM-100 unit (Millipore, Billerica, Mass.). The solution was centrifuged at 13,000 g for 10 sec to saturate the membrane, and the filtrate was transferred back to the unit. The solution was centrifuged for another 20 sec, and the filtrate (about 10 μL) was collected. Aliquots (10 μL) were taken from both the remaining solution and the filtrate, and radioactivity in each aliquot was determined by Beckman LS 6500 liquid scintillation counter. All binding assays were duplicated. The equilibrium dissociation constants (Kd) of the ligand-protein interaction were obtained by fitting the dependence of bound fractions of specific binding on the concentration of the aptamers to the equation Y=B max X/(Kd+X), using the SigmaPlot program.
(§2) To determine the extent to which the aptamers 85A (SEQ ID NO.: 13), 85B (SEQ ID NO.: 14), and 85C (SEQ ID NO.: 15) bind specifically to fibrinogen, their dissociation constants (Kd) were measured using the equilibrium filtration method with radiolabeled α-³²P-dATP. The target substrate to which the aptamer was binding was fibrinogen (FIG. 12A), deglycosylated fibrinogen (FIG. 12B) and periodated fibrinogen (FIG. 12C).

[3] = molecular target: T2, periodate-treated fibrinogen (Homo sapiens, UniProt P02671-2;P02675;P02679-2 P02671-2:20-629,P02675:31-491,P02679-2:27-437); experiment: filter; equilibrium filtration; conditions: tags: Sigma-Aldrich fibrinogen, glycans oxidised with sodium periodate, chain copies: 2
T2 sequence (P02671 20-629, chain 1 of 3): as the sequence (P02671 20-629, chain 1 of 3) above
T2 sequence (P02675 31-491, chain 2 of 3): as the sequence (P02675 31-491, chain 2 of 3) above
T2 sequence (P02679 other isoform, or with tags, fused parts or gaps, chain 3 of 3): as the sequence (P02679 other isoform, or with tags, fused parts or gaps, chain 3 of 3) above
Description: as §1, §2

fibrinogen [4] = molecular target: T3, fibrinogen (Homo sapiens, UniProt P02671-2;P02675;P02679-2 P02671-2:20-629,P02675:31-491,P02679-2:27-437); experiment: filter; equilibrium filtration; Table 1 prints a different (93, possibly truncated) value; conditions: tags: Sigma-Aldrich, from human plasma, about 60% protein; chain copies: 2; label: 32P (alpha-32P-dATP)
T3 sequence (P02671 20-629, chain 1 of 3): as the sequence (P02671 20-629, chain 1 of 3) above
T3 sequence (P02675 31-491, chain 2 of 3): as the sequence (P02675 31-491, chain 2 of 3) above
T3 sequence (P02679 other isoform, or with tags, fused parts or gaps, chain 3 of 3): as the sequence (P02679 other isoform, or with tags, fused parts or gaps, chain 3 of 3) above
Description: as §1, with “The solution was centrifuged for another 20 sec, and the filtrate (about 10 μL) was collected.” left out, “All binding assays were duplicated. The equilibrium dissociation constants (Kd) of the ligand-protein interaction were obtained by fitting the dependence of bound fractions of specific binding on the concentration of the aptamers to the equation Y=B max X/(Kd+X), using the SigmaPlot program.” left out
(§3) To determine the extent to which the aptamers 85A (SEQ ID NO.: 13), 85B (SEQ ID NO.: 14), and 85C (SEQ ID NO.: 15) bind specifically to fibrinogen, their dissociation constants (Kd) were measured using the equilibrium filtration method with radiolabeled α-³²P-dATP. […]

fibrinogen [5] = molecular target: T3, fibrinogen; experiment: SPR; biotin-aptamer on streptavidin chip; conditions: tags: Sigma-Aldrich, from human plasma, about 60% protein, chain copies: 2
Description: 0.2 M EDC and 0.05 M NHS were mixed in water. After degassing, 500 μL of this EDC-NHS solution was infused into both channels on the chip over a period of about 10 min (twice). Then a 1 mg/mL streptavidin stock solution was diluted 10-fold with 20 mM sodium acetate buffer at pH 5.2. The streptavidin solution (500 μL) was infused into both the detection and control channels over about 10 min period. […] 1M ethanolamine HCl solution (500 μL) (pH 8.5) was infused in over a period of 3 min to cap un-reacted (and activated) carboxyl sites. Then biotin-labeled aptamer (B-TTP or d-TTP) solution (500 μL, in PBS/T) was infused into the detection channel only over a period of about 10 min (twice). After aptamer immobilization, different fibrinogen concentrations were used in binding studies. In each run, fibrinogen solution was infused in at a flow rate of 0.05 mL/min for 6 min. After each injection, 1M ethanolamine HCl (pH 8.5) solution was infused in as the regeneration solution. All experiments were duplicated.
The KD values were obtained for aptamer 85B (SEQ ID NO.: 14) and its mutational analogs by using a surface plasmon resonance (SPR) instrument. SPR is a method to detect the index of the refraction of surface bound layers, as described by Karlsson et al., (2000) J. Anal. Biochem. 278: 1-13, and Shimomura et al., (2001) Anal. Chim. Acta. 434: 223-230 both of which are incorporated herein by reference in their entireties). This method has been used to determine the kinetic on and off rates for the interactions between biomolecules and binding receptors. In the aptamer-fibrinogen binding studies, streptavidin was immobilized to chips coated with a SAM surface that has terminal carboxyl functional groups. Biotin-labeled DNA was subsequently immobilized on the chip through biotin-streptavidin interactions. Fibrinogen solutions of various concentrations were then used for binding constant determination using kinetic data, as described by Lin et al., (2007). […] Opin. Biotechnol. 8: 498-502; Myszka, D. G. (2000) Methods Enzymol. 323: 325-340; and Myszka & Rich (2000) Pharm. Sci. Technology Today 3: 310-317. Table 6 lists the KD values of 85B and its mutations.

fibrinogen [6] = molecular target: T3, fibrinogen; experiment: filter; equilibrium filtration, same buffer; conditions: tags: Sigma-Aldrich, from human plasma, about 60% protein; chain copies: 2; label: 32P (filtration) or 5'-biotin (SPR)
Description: as §1, with “The solution was centrifuged for another 20 sec, and the filtrate (about 10 μL) was collected.” left out, “All binding assays were duplicated. The equilibrium dissociation constants (Kd) of the ligand-protein interaction were obtained by fitting the dependence of bound fractions of specific binding on the concentration of the aptamers to the equation Y=B max X/(Kd+X), using the SigmaPlot program.” left out
as §3

fibrinogen [7] = molecular target: T3, fibrinogen; experiment: filter; equilibrium filtration; Tables 3 and 4 give 102 ± 40; conditions: tags: Sigma-Aldrich, from human plasma, about 60% protein; chain copies: 2; label: 32P (alpha-32P-dATP)
Description: as §1, with “The solution was centrifuged for another 20 sec, and the filtrate (about 10 μL) was collected.” left out, “All binding assays were duplicated. The equilibrium dissociation constants (Kd) of the ligand-protein interaction were obtained by fitting the dependence of bound fractions of specific binding on the concentration of the aptamers to the equation Y=B max X/(Kd+X), using the SigmaPlot program.” left out
as §3

[8] = molecular target: T1, deglycosylated fibrinogen (TFMS-treated); experiment: filter; equilibrium filtration; value as printed; conditions: tags: Sigma-Aldrich fibrinogen, chemically deglycosylated with trifluoromethanesulfonic acid; chain copies: 2; label: 32P (alpha-32P-dATP)
Description: as §1, with “The solution was centrifuged for another 20 sec, and the filtrate (about 10 μL) was collected.” left out, “All binding assays were duplicated. The equilibrium dissociation constants (Kd) of the ligand-protein interaction were obtained by fitting the dependence of bound fractions of specific binding on the concentration of the aptamers to the equation Y=B max X/(Kd+X), using the SigmaPlot program.” left out
as §3

[9] = molecular target: T2, periodate-treated fibrinogen; experiment: filter; equilibrium filtration; value as printed; conditions: tags: Sigma-Aldrich fibrinogen, glycans oxidised with sodium periodate; chain copies: 2; label: 32P (alpha-32P-dATP)
Description: as §1, with “The solution was centrifuged for another 20 sec, and the filtrate (about 10 μL) was collected.” left out, “All binding assays were duplicated. The equilibrium dissociation constants (Kd) of the ligand-protein interaction were obtained by fitting the dependence of bound fractions of specific binding on the concentration of the aptamers to the equation Y=B max X/(Kd+X), using the SigmaPlot program.” left out
as §3

fibrinogen [10] = molecular target: T3, fibrinogen; experiment: filter; equilibrium filtration; peroxide-treated aptamer; conditions: tags: Sigma-Aldrich, from human plasma, about 60% protein; chain copies: 2; label: 32P (alpha-32P-dATP)
fibrinogen [11] = molecular target: T3, fibrinogen; experiment: filter; equilibrium filtration; conditions: tags: Sigma-Aldrich, from human plasma, about 60% protein; chain copies: 2; label: 32P (alpha-32P-dATP)
Description: as §1, §2

[12] = label: 32P (filtration) or 5'-biotin (SPR)

Chain of fibrinogen (Homo sapiens), P02671-2+P02675+P02679-2 (P02671 20-629, chain 1 of 3): as the sequence (P02671 20-629, chain 1 of 3) above
Chain of fibrinogen (Homo sapiens), P02671-2+P02675+P02679-2 (P02675 31-491, chain 2 of 3): as the sequence (P02675 31-491, chain 2 of 3) above
Chain of fibrinogen (Homo sapiens), P02671-2+P02675+P02679-2 (P02679 other isoform, or with tags, fused parts or gaps, chain 3 of 3): as the sequence (P02679 other isoform, or with tags, fused parts or gaps, chain 3 of 3) above

CCTTCGTTGTCTGCCTTCGTNNNNNNNNNNNNNNNNNNNNNNNNNNNNNNNNNNNNNNNNNNNNNNNNNNACCCTTCAGAATTCGCACCA [round 13 SELEX pool B-TTP]
Kd [1]: 5 µM

B1: 85C TTP (ssDNA)
DNA: CCTTCGTTGTCTGCCTTCGTAGTCGACTCTGACGCATGGACGTATCCTGTGCGTATGCATTATGAAGCACACCCTTCAGAATTCGCACCA
modifications: none (natural T)
Kd ([2]; label: 32P (alpha-32P-dATP)): 0.256 µM | Kd ([3]; label: 32P (alpha-32P-dATP)): 0.321 µM | Kd (fibrinogen [4]): 0.122 µM

B2: 85B-2 B-TTP (ssDNA)
DNA: CCTTCGTTGTCTGCCTTCGTAGGACCGCAGACATCGACGCAGGGAAAATCCGCAAGTCCAGCCAAATGCCACCCTTCAGAATTCGCACCA
modifications: quinoline-8-boronic acid-modified T (B-TTP) replacing T outside the primer region
Kd (fibrinogen [5]; label: 5'-biotin): 0.0637 µM

B3: 85B-4 dTTP (ssDNA)
DNA: CCTTCGTTGTCTGCCTTCGTAGGACCGCAGACATCGACGCAGGGAAATTCCGCAAGACCAGCCAAAAGCCACCCTTCAGAATTCGCACCA
modifications: none (natural T)
Kd (fibrinogen [5]; label: 5'-biotin): 0.238 µM

B4: 85B-3 dTTP (ssDNA)
DNA: CCTTCGTTGTCTGCCTTCGTAGGACCGCAGACAACGACGCAGGGAAATACCGCAAGTCCAGCCAAATGCCACCCTTCAGAATTCGCACCA
modifications: none (natural T)
Kd (fibrinogen [5]; label: 5'-biotin): 0.233 µM

B5: 85B-1 B-TTP (ssDNA)
DNA: CCTTCGTTGTCTGCCTTCGTAGGACCGCAGACAACGACGCAGGGAAATTCCGCAAGTCCAGCCAAATGCCACCCTTCAGAATTCGCACCA
modifications: quinoline-8-boronic acid-modified T (B-TTP) replacing T outside the primer region
Kd (fibrinogen [5]; label: 5'-biotin): 0.205 µM

B6: 85B-5 dTTP (ssDNA)
DNA: CCTTCGTTGTCTGCCTTCGTAGGACCGCAGACATCGACGCAGGGAAATTCCGCAAGTCCAGCCAAAAGCCACCCTTCAGAATTCGCACCA
modifications: none (natural T)
Kd (fibrinogen [5]; label: 5'-biotin): 1.08 µM

B7: 85B-1 dTTP (ssDNA)
DNA: CCTTCGTTGTCTGCCTTCGTAGGACCGCAGACAACGACGCAGGGAAATTCCGCAAGTCCAGCCAAATGCCACCCTTCAGAATTCGCACCA
modifications: none (natural T)
Kd (fibrinogen [5]; label: 5'-biotin): 0.507 µM

B8: 85B TTP (ssDNA)
DNA: CCTTCGTTGTCTGCCTTCGTAGGACCGCAGACATCGACGCAGGGAAATTCCGCAAGTCCAGCCAAATGCCACCCTTCAGAATTCGCACCA
modifications: none (natural T)
Kd [2, 12]: 0.14 µM | Kd [3, 12]: 0.13 µM | Kd (fibrinogen [5]; [12]): 0.127 µM | Kd (fibrinogen [6]): 0.0638 µM

B9: 85B-4 B-TTP (ssDNA)
DNA: CCTTCGTTGTCTGCCTTCGTAGGACCGCAGACATCGACGCAGGGAAATTCCGCAAGACCAGCCAAAAGCCACCCTTCAGAATTCGCACCA
modifications: quinoline-8-boronic acid-modified T (B-TTP) replacing T outside the primer region
Kd (fibrinogen [5]; label: 5'-biotin): 0.0112 µM

B10: 85B-3 B-TTP (ssDNA)
DNA: CCTTCGTTGTCTGCCTTCGTAGGACCGCAGACAACGACGCAGGGAAATACCGCAAGTCCAGCCAAATGCCACCCTTCAGAATTCGCACCA
modifications: quinoline-8-boronic acid-modified T (B-TTP) replacing T outside the primer region
Kd (fibrinogen [5]; label: 5'-biotin): 0.0176 µM

B11: 85B-2 dTTP (ssDNA)
DNA: CCTTCGTTGTCTGCCTTCGTAGGACCGCAGACATCGACGCAGGGAAAATCCGCAAGTCCAGCCAAATGCCACCCTTCAGAATTCGCACCA
modifications: none (natural T)
Kd (fibrinogen [5]; label: 5'-biotin): 0.127 µM

B12: 85B-5 B-TTP (ssDNA)
DNA: CCTTCGTTGTCTGCCTTCGTAGGACCGCAGACATCGACGCAGGGAAATTCCGCAAGTCCAGCCAAAAGCCACCCTTCAGAATTCGCACCA
modifications: quinoline-8-boronic acid-modified T (B-TTP) replacing T outside the primer region
Kd (fibrinogen [5]; label: 5'-biotin): 0.329 µM

B13: 85A TTP (ssDNA)
DNA: CCTTCGTTGTCTGCCTTCGTAGCGGATCGAATTACGCGTTAACGGCAACCGATAACGGGACCGATTGCACACCCTTCAGAATTCGCACCA
modifications: none (natural T)
Kd (fibrinogen [7]): 0.102 µM | Kd [8]: 0.0602 µM | Kd [9]: 0.0674 µM

B14: 85A B-TTP, H2O2-treated (ssDNA)
DNA: CCTTCGTTGTCTGCCTTCGTAGCGGATCGAATTACGCGTTAACGGCAACCGATAACGGGACCGATTGCACACCCTTCAGAATTCGCACCA
modifications: B-TTP-derived T with boronic acid removed by peroxide oxidation
Kd (fibrinogen [10]): 0.173 µM

B15: 85A M-TTP (ssDNA)
DNA: CCTTCGTTGTCTGCCTTCGTAGCGGATCGAATTACGCGTTAACGGCAACCGATAACGGGACCGATTGCACACCCTTCAGAATTCGCACCA
modifications: 5-alkynyl-amide T without boronic acid (M-TTP) replacing T outside the primer region
Kd (fibrinogen [11]): 0.138 µM
